Measurements: the supplement of paper PMC7125110
± gives the standard error. This sample holds only a part of the variants without activity.

B1: glmS ribozyme (parent)
chain: AUAAAAGCGCCAGAACUACAGAAAUGUAGUUGACGAGGAGGAGGUUUAUCGAAUUUUCGGCGGAUGCCUCCAAA

Columns and labels:
Conditions in all cases: with glucosamine-6-phosphate
[1] = variants of: B1; experiment: self-cleavage kobs at 40 uM GlcN6P; higher = faster cleavage; RNA array
In short: (§1)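 kcat and KM were obtained from weighted Michaelis–Menten fits across concentrations of kobs values. Those came from one- or two-exponential decay fits to per-tile medians normalised to baseline and to non-cleaving reference variants. The variants were barcoded ribozymes transcribed in situ by E. coli RNA polymerase on sequenced MiSeq chips and tracked through a hybridised Cy3 probe at 37 °C, with 40 μM to 10 mM glucosamine-6-phosphate in HEPES/KCl/Mg(OAc)2 buffer flowed in.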

[2] = variants of: B1; experiment: self-cleavage kobs at 2500 uM GlcN6P; higher = faster cleavage; RNA array
In short: as §1

[3] = variants of: B1; experiment: self-cleavage kobs at 10000 uM GlcN6P; higher = faster cleavage; RNA array
In short: as §1

[4] = variants of: B1; experiment: self-cleavage kobs at 160 uM GlcN6P; higher = faster cleavage; RNA array
In short: as §1

[5] = variants of: B1; experiment: self-cleavage kobs at 640 uM GlcN6P; higher = faster cleavage; RNA array
In short: as §1

| Variant | self-cleavage kobs at 40 uM GlcN6P [1] [s⁻¹] | self-cleavage kobs at 2500 uM GlcN6P [2] [s⁻¹] | self-cleavage kobs at 10000 uM GlcN6P [3] [s⁻¹] | self-cleavage kobs at 160 uM GlcN6P [4] [s⁻¹] | self-cleavage kobs at 640 uM GlcN6P [5] [s⁻¹] |
| --- | --- | --- | --- | --- | --- |
| C11U G63U | < 1e-05 | < 1e-05 | < 1e-05 |  |  |
| A12U G51C | < 1e-05 | < 1e-05 |  | < 1e-05 | < 1e-05 |
| G13C G60C | < 1e-05 |  | < 1e-05 | < 1e-05 |  |
| C11U U49C | < 1e-05 | < 1e-05 |  | < 1e-05 | < 1e-05 |
| A12U G13C C34U G62A U65G | < 1e-05 |  |  |  |  |
| A12U G59C | < 1e-05 | < 1e-05 | < 1e-05 | < 1e-05 | < 1e-05 |
| A12U U45A U49G C50U G63U U69C | < 1e-05 | < 1e-05 | < 1e-05 |  | < 1e-05 |
| G13C U65G | < 1e-05 | < 1e-05 |  | < 1e-05 | < 1e-05 |
| A12U A33G G63A | < 1e-05 |  |  |  |  |
| C11U U69G | 5.87e-05 ± 1.4e-05 | 9.51e-05 ± 2.1e-05 | 5.87e-05 ± 8.8e-06 | 7.55e-05 ± 2.7e-05 | 0.000286 ± 6.5e-05 |
| C11U G29U C34U A53U U56A | < 1e-05 | < 1e-05 |  |  |  |
| A12G G40U U54G | < 1e-05 |  | 0.000231 ± 6e-05 |  |  |
| C11U G29C A53U U56G C70A | 0.000205 ± 4.8e-05 |  | 0.000369 ± 8.6e-05 |  |  |
| A12U A52C | < 1e-05 |  | 4.23e-05 ± 1.8e-05 |  |  |
| A12G G41C C61U | < 1e-05 | < 1e-05 | < 1e-05 |  |  |
| A12U U31G A33G C50U | < 1e-05 |  |  |  |  |
| C11G U31A C50G U57G | 0.000129 ± 3.6e-05 | 7.48e-05 ± 3e-05 | 5.06e-05 ± 1.6e-05 |  |  |
| C11G U31A U49G | < 1e-05 |  |  |  |  |
| G13C A52C | < 1e-05 | < 1e-05 |  |  | < 1e-05 |
| G13C A52U | < 1e-05 |  | < 1e-05 | < 1e-05 | < 1e-05 |
| A12C A33U A53U C68A A73C | < 1e-05 |  |  |  |  |
| C11U A12U A64U | < 1e-05 |  |  |  |  |
| A12U U45A C58G C71G | < 1e-05 | 4.36e-05 ± 1.4e-05 | 3.15e-05 ± 1.5e-05 |  |  |
| G13U A39C G44A | < 1e-05 |  | < 1e-05 |  |  |

| Variant | self-cleavage kobs at 40 uM GlcN6P [1] [s⁻¹] | self-cleavage kobs at 2500 uM GlcN6P [2] [s⁻¹] | self-cleavage kobs at 10000 uM GlcN6P [3] [s⁻¹] | self-cleavage kobs at 160 uM GlcN6P [4] [s⁻¹] | self-cleavage kobs at 640 uM GlcN6P [5] [s⁻¹] |
| --- | --- | --- | --- | --- | --- |
| C11G U30G A36C A64U U65C | < 1e-05 | < 1e-05 | < 1e-05 | < 1e-05 | < 1e-05 |
| A12G A36C G51U | < 1e-05 |  | < 1e-05 |  |  |
| A12G U30A A42G U54C | < 1e-05 |  | 6.88e-05 ± 2.4e-05 |  |  |
| A12U G37A C61G C70A | < 1e-05 |  | < 1e-05 |  |  |
| C11G U45G | < 1e-05 | < 1e-05 | < 1e-05 | < 1e-05 | < 1e-05 |
| A12C A39C C67G | < 1e-05 |  |  |  |  |
| A12C A14G A15C | 0.000144 ± 2.4e-05 | 0.00354 ± 0.00082 |  |  | 0.00124 ± 0.0003 |
| A12U G29U | 0.000958 ± 0.00022 |  | 0.019 ± 0.0045 |  |  |
| G13U G38U A52G C68G U69G | 0.000165 ± 5.9e-05 |  | 8.14e-05 ± 2.1e-05 |  |  |
| A12C U31C A39C U57G C67A | < 1e-05 |  | < 1e-05 |  |  |
| G13A U31A G59C C70A | < 1e-05 |  |  |  |  |
| G13U C50G C70G | 7.6e-05 ± 2.2e-05 | 0.000166 ± 3.6e-05 | 6.1e-05 ± 1.2e-05 | 0.000214 ± 5.6e-05 | 8.28e-05 ± 1.7e-05 |
| G13A G43U | < 1e-05 |  |  | < 1e-05 | < 1e-05 |
| A12U G40A G44U | < 1e-05 |  |  |  | < 1e-05 |
| C11U A14C G38A C61G | < 1e-05 |  |  |  |  |
| G13U C61U | < 1e-05 |  | < 1e-05 | < 1e-05 | < 1e-05 |
| G13C U45C U46A | < 1e-05 |  | < 1e-05 | < 1e-05 | < 1e-05 |
| C11U A12U U65C C68G | < 1e-05 |  | < 1e-05 |  |  |
| C11U G38U A52U | < 1e-05 |  | < 1e-05 | < 1e-05 | < 1e-05 |
| A12G A36U A42U G51U A53C | < 1e-05 |  |  |  |  |
| A12C A36G | < 1e-05 | < 1e-05 | < 1e-05 | < 1e-05 | < 1e-05 |
| C11U A12U G43A C61G | < 1e-05 |  | < 1e-05 |  |  |
| A12U A15C U55A | 0.000587 ± 0.00012 |  | 0.012 ± 0.0027 |  |  |
